Measurements from publication PMC3807708.

Columns and labels:
[1] = biological target: extracellular domain of human interferon-γ receptor 1 (IFN-γ-Rx), mutant N96W (human) (UniProt P15260); assay: SPR; His-tagged receptor immobilised on Ni2+-coated HTG chip; IFN-γ-SC as analyte; PBST; 30 °C; preliminary data of temperature dependency
[2] = biological target: extracellular domain of human interferon-γ receptor 1 (IFN-γ-Rx), wild type (human) (UniProt P15260); assay: as above
[3] = biological target: extracellular domain of human interferon-γ receptor 1 (IFN-γ-Rx), mutant S95R (human) (UniProt P15260); assay: as above
[4] = biological target: extracellular domain of human interferon-γ receptor 1 (IFN-γ-Rx), mutant H222R (human) (UniProt P15260); assay: as above
[5] = biological target: extracellular domain of human interferon-γ receptor 1 (IFN-γ-Rx), mutant N70G (human) (UniProt P15260); assay: as above
[6] = biological target: extracellular domain of human interferon-γ receptor 1 (IFN-γ-Rx), mutant N70G (human) (UniProt P15260); assay: SPR; His-tagged receptor immobilised on Ni2+-activated HTG chip (ProteOn XPR36); IFN-γ-SC as analyte, 1.2 to 99 nM; PBST (PBS pH 7.4, 0.005% Tween20); 25 °C; 1:1 Langmuir with drift; averages over four different batches of IFN-γ-SC
[7] = biological target: extracellular domain of human interferon-γ receptor 1 (IFN-γ-Rx), mutant N96W (human) (UniProt P15260); assay: SPR; His-tagged receptor immobilised on Ni2+-coated HTG chip; IFN-γ-SC as analyte; PBST; 25 °C; preliminary data of temperature dependency
[8] = biological target: extracellular domain of human interferon-γ receptor 1 (IFN-γ-Rx), wild type (human) (UniProt P15260); assay: as above
[9] = biological target: extracellular domain of human interferon-γ receptor 1 (IFN-γ-Rx), mutant S95R (human) (UniProt P15260); assay: as above
[10] = biological target: extracellular domain of human interferon-γ receptor 1 (IFN-γ-Rx), mutant H222R (human) (UniProt P15260); assay: as above

single-chain form of human interferon-γ (IFN-γ-SC) (ligand)
Kd [1]: 12.2 nM | Kd [2]: 59.9 nM | Kd [3]: 107 nM | Kd [4]: 56 nM | Kd [5]: 49.2 nM | Kd [6]: 19 nM | Kd [7]: 6.1 nM | Kd [8]: 30.5 nM | Kd [9]: 69.4 nM | Kd [10]: 30.1 nM
